Laboratory results: article PMC10435562, “VEGF-B prevents excessive angiogenesis by inhibiting FGF2/FGFR1 pathway” (Signal Transduction and Targeted Therapy, 2023)

T1: FGFR1-Fc (Z03223, Genscript) (UniProt P11362 22-376)
T1 construct: fibroblast growth factor receptor 1 part of a bought Fc fusion; also called FGFR1 homodimer; FGFR1/FGFR1; source: bought: Genscript (Z03223)
T1 sequence (looked up): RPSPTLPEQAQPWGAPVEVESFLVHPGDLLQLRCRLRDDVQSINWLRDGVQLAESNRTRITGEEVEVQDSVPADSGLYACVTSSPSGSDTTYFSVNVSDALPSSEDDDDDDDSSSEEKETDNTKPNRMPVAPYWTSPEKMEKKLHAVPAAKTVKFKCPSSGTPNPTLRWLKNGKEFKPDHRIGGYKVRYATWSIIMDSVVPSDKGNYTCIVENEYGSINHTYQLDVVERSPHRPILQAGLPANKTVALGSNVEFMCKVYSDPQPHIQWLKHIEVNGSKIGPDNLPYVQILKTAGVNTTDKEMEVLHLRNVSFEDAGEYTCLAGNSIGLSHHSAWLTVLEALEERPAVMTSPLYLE

B1: Human VEGF-B167 (ligand, UniProt P49765-2 22-188, looked up)
chain: PVSQPDAPGHQRKVVSWIDVYTRATCQPREVVVPLTVELMGTVAKQLVPSCVTVQRCGGCCPDDGLECVPTGQHQVRMQILMIRYPSSQLGEMSLEEHSQCECRPKKKDSAVKPDSPRPLCPRCTQHHQRPDPRTCRCRCRRRSFLRCQGRGLELNPDTCRCRKLRR
notes: UniProt P49765 is printed for the VEGF-B167 peptides; Bought recombinant protein; source: bought: PeproTech (100-20B)

Key:
[1] = molecular target: FGF2 (BFF-H4117, Acro Biosystems) (UniProt P09038); assay: SPR; VEGF-B immobilised at 3820 RU on CM5 (the FGF2 surface is not described); FGFR1 DI (18.75-600 nM), DII (3.125-100 nM), DIII (12.5-400 nM), DII-III (25-800 nM) flowed at 10 µl/min
Sequence of FGF2 (BFF-H4117, Acro Biosystems) (UniProt P09038) (P09038 143-288): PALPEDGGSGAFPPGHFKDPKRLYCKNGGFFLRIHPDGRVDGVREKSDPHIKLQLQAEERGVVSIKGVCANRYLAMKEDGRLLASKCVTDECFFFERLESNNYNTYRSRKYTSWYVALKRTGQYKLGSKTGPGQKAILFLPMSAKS

[2] = molecular target: B1; assay: as above
[3] = molecular target: T2, FGF2 (BFF-H4117, Acro Biosystems) (UniProt P09038 143-288); assay: as above; conditions: both partners purified
T2 construct: fibroblast growth factor 2 (basic FGF); Immobilised on the CM5 chip for SPR; also called basic FGF; fibroblast growth factor 2; source: bought: Acro Biosystems (BFF-H4117)
T2 sequence (P09038 143-288): as above

[4] = molecular target: T1, FGFR1-Fc (Z03223, Genscript); assay: SPR; BIAcore 8000; VEGF-B, FGF2 or PlGF immobilised (5389, 1860, 4700 RU) on CM5 by amine coupling; FGFR1-Fc flowed at 12.5-400 nM, 30 µl/min; 1:1 binding model, KD = kd/ka; conditions: both partners purified
[5] = molecular target: B1; assay: SPR; VEGF-B immobilised at 3820 RU on CM5 (the VEGF-C surface is not described); heterodimer proteins flowed at 1.875-60 nM, 10 µl/min; conditions: both partners purified

Kd [1] [nM]	Kd [2] [nM]	Molecule	other results
71	101	FGFR1 DII (domain or fragment)	–
63	49	FGFR1 DII-III (domain or fragment)	–
43	64	FGFR1 DIII (domain or fragment)	–
–	–	FGFR1 DI (domain or fragment) PTLPEQAQPWGAPVEVESFLVHPGDLLQLRCRLRDDVQSINWLRDGVQLAESNRTRITGEEVEVQDSVPADSGLYACVTSSPSGSDTTYFSVNVS	Kd ([2]; both partners purified): 532 nM; Kd [3]: 245 nM
–	–	B1	Kd [4]: 17 nM
–	–	VEGFR1 ECD-L-FGFR1 ECD (other) SKLKDPELSLKGTQHIMQAGQTLHLQCRGEAAHKWSLPEMVSKESERLSITKSACGRNGKQFCSTLTLNTAQANHTGFYSCKYLAVPTSKKKETESAIYIFISDTGRPFVEMYSEIPEIIHMTEGRELVIPCRVTSPNITVTLKKFPLDTLIPDGKRIIWDSRKGFIISNATYKEIGLLTCEATVNGHLYKTNYLTHRQTNTIIDVQISTPRPVKLLRGHTLVLNCTATTPLNTRVQMTWSYPDEKNKRASVRRRIDQSNSHANIFYSVLTIDKMQNKDKGLYTCRVRSGPSFKSVNTSVHIYDKAFITVKHRKQQVLETVAGKRSYRLSMKVKAFPSPEVVWLKDGLPATEKSARYLTRGYSLIIKDVTEEDAGNYTILLSIKQSNVFKNLTATLIVNVKPQIYEKAVSSFPDPALYPLGSRQILTCTAYGIPQPTIKWFWHPCNHNHSEARCDFCSNNEESFILDADSNMGNRIESITQRMAIIEGKNKMASTLVVADSRISGIYICIASNKVGTVGRNISFYITDVPNGFHVNLEKMPTEGEDLKLSCTVNKFLYRDVTWILLRTVNNRTMHYSISKQKMAITKEHSITLNLTIMNVSLQDSGTYACRARNVYTGEEILQKKEITIRDQEAPYLLRNLSDHTVAISSSTTLDCHANGVPEPQITWFKNNHKIQQEPGIILGPGSSTLFIERVTEEDEGVYHCKATNQKGSVESSAYLTVQGTSDKSNLERPSPTLPEQAQPWGAPVEVESFLVHPGDLLQLRCRLRDDVQSINWLRDGVQLAESNRTRITGEEVEVQDSVPADSGLYACVTSSPSGSDTTYFSVNVSDALPSSEDDDDDDDSSSEEKETDNTKPNRMPVAPYWTSPEKMEKKLHAVPAAKTVKFKCPSSGTPNPTLRWLKNGKEFKPDHRIGGYKVRYATWSIIMDSVVPSDKGNYTCIVENEYGSINHTYQLDVVERSPHRPILQAGLPANKTVALGSNVEFMCKVYSDPQPHIQWLKHIEVNGSKIGPDNLPYVQILKTAGVNTTDKEMEVLHLRNVSFEDAGEYTCLAGNSIGLSHHSAWLTVLEALEERPAVMTSPLYLE	Kd [5]: 1.4 nM
–	–	FGFR1 ECD-L-VEGFR1 ECD (other) RPSPTLPEQAQPWGAPVEVESFLVHPGDLLQLRCRLRDDVQSINWLRDGVQLAESNRTRITGEEVEVQDSVPADSGLYACVTSSPSGSDTTYFSVNVSDALPSSEDDDDDDDSSSEEKETDNTKPNRMPVAPYWTSPEKMEKKLHAVPAAKTVKFKCPSSGTPNPTLRWLKNGKEFKPDHRIGGYKVRYATWSIIMDSVVPSDKGNYTCIVENEYGSINHTYQLDVVERSPHRPILQAGLPANKTVALGSNVEFMCKVYSDPQPHIQWLKHIEVNGSKIGPDNLPYVQILKTAGVNTTDKEMEVLHLRNVSFEDAGEYTCLAGNSIGLSHHSAWLTVLEALEERPAVMTSPLYLESKLKDPELSLKGTQHIMQAGQTLHLQCRGEAAHKWSLPEMVSKESERLSITKSACGRNGKQFCSTLTLNTAQANHTGFYSCKYLAVPTSKKKETESAIYIFISDTGRPFVEMYSEIPEIIHMTEGRELVIPCRVTSPNITVTLKKFPLDTLIPDGKRIIWDSRKGFIISNATYKEIGLLTCEATVNGHLYKTNYLTHRQTNTIIDVQISTPRPVKLLRGHTLVLNCTATTPLNTRVQMTWSYPDEKNKRASVRRRIDQSNSHANIFYSVLTIDKMQNKDKGLYTCRVRSGPSFKSVNTSVHIYDKAFITVKHRKQQVLETVAGKRSYRLSMKVKAFPSPEVVWLKDGLPATEKSARYLTRGYSLIIKDVTEEDAGNYTILLSIKQSNVFKNLTATLIVNVKPQIYEKAVSSFPDPALYPLGSRQILTCTAYGIPQPTIKWFWHPCNHNHSEARCDFCSNNEESFILDADSNMGNRIESITQRMAIIEGKNKMASTLVVADSRISGIYICIASNKVGTVGRNISFYITDVPNGFHVNLEKMPTEGEDLKLSCTVNKFLYRDVTWILLRTVNNRTMHYSISKQKMAITKEHSITLNLTIMNVSLQDSGTYACRARNVYTGEEILQKKEITIRDQEAPYLLRNLSDHTVAISSSTTLDCHANGVPEPQITWFKNNHKIQQEPGIILGPGSSTLFIERVTEEDEGVYHCKATNQKGSVESSAYLTVQGTSDKSNLE	Kd [5]: 3.7 nM
